According to US20250171379A1 (Janssen / Centocor, published 2025):

B1: anti-PSMA mAb PSMB127 (antibody, human IgG4 S228P, kappa, F234A L235A, V domains shown)
VH: EVQLLESGGGLVQPGGSLRLSCAASGFTFKSDAMHWVRQAPGKGLEWVSEISGSGGYTNYADSVKGRFTISRDNSKNTLYLQMNSLRAEDTAVYYCARDSYDSSLYVGDYFDYWGQGTLVTVSS
VL: EIVLTQSPATLSLSPGERATLSCRASQSVSSYLAWYQQKPGQAPRLLIYDASNRATGIPARFSGSGSGTDFTLTISSLEPEDFAVYYCQQRSNWPLTFGQGTKVEIKR
notes: Parental, unmodified human IgG4 antibody
B2: anti-PSMA mAb-azide (random azide) (antibody, human IgG4 S228P, kappa, F234A L235A, V domains shown)
VH: B1 VH
VL: B1 VL
modifications: random conjugation of NHS-PEG4-azide to amines of the antibody, CAR 2.4
notes: Human IgG4; sites of modification random, not located; also called anti-PSMA mAb (random azide) mAb-azide
B3: anti-PSMA mAb-DOTA (random azide clicked with DOTA-GA-DBCO) (antibody, human IgG4 S228P, kappa, F234A L235A, V domains shown)
VH: B1 VH
VL: B1 VL
modifications: random NHS-PEG4-azide on amines, clicked with unchelated DOTA-GA-DBCO, CAR 2.4
notes: Human IgG4; also called anti-PSMA mAb (random azide) mAb-DOTA
B4: anti-PSMA mAb-DFO (random azide clicked with DFO-DBCO) (antibody, human IgG4 S228P, kappa, F234A L235A, V domains shown)
VH: B1 VH
VL: B1 VL
modifications: random NHS-PEG4-azide on amines, clicked with unchelated DFO-DBCO, CAR 2.4
notes: Human IgG4; also called anti-PSMA mAb (random azide) mAb-DFO
B5: anti-PSMA mAb-azide (site specific glycan) (antibody, human IgG4 S228P, kappa, F234A L235A, V domains shown)
VH: B1 VH
VL: B1 VL
modifications: Fc glycan trimmed with GlycINATOR to the innermost GlcNAc, GalNAz azido sugar added with GalT; CAR exactly 2
notes: Human IgG4; also called anti-PSMA mAb (glycan) mAb-azide
B6: anti-PSMA mAb-DOTA (site specific glycan azide clicked with DOTA-GA-DBCO) (antibody, human IgG4 S228P, kappa, F234A L235A, V domains shown)
VH: B1 VH
VL: B1 VL
modifications: Fc glycan trimmed to the innermost GlcNAc, GalNAz azido sugar added, clicked with unchelated DOTA-GA-DBCO; CAR 2
notes: Human IgG4; also called anti-PSMA mAb (glycan) mAb-DOTA
B7: anti-PSMA mAb, deglycosylated (MTG samples) (antibody, human IgG4 S228P, kappa, F234A L235A, V domains shown)
VH: B1 VH
VL: B1 VL
modifications: deglycosylated with Rapid PNGase F (all N-glycans released)
notes: Human IgG4; also called anti-PSMA mAb (MTG) Deglycosylated
B8: anti-PSMA mAb-azide (site specific MTG) (antibody, human IgG4 S228P, kappa, F234A L235A, V domains shown)
VH: B1 VH
VL: B1 VL
modifications: deglycosylated with PNGase F; 3-azido propylamine at Gln295 by microbial transglutaminase; CAR 2
notes: Human IgG4; also called anti-PSMA mAb (MTG) mAb-azide
B9: anti-PSMA mAb-DOTA (site specific MTG azide clicked with DOTA-GA-DBCO) (antibody, human IgG4 S228P, kappa, F234A L235A, V domains shown)
VH: B1 VH
VL: B1 VL
modifications: deglycosylated with PNGase F; 3-azido propylamine at Gln295 by microbial transglutaminase, clicked with unchelated DOTA-GA-DBCO; CAR 2
notes: Human IgG4; also called anti-PSMA mAb (MTG) mAb-DOTA
B10: anti-PSMA mAb-DFO (site specific MTG azide clicked with DFO-DBCO) (antibody, human IgG4 S228P, kappa, F234A L235A, V domains shown)
VH: B1 VH
VL: B1 VL
modifications: deglycosylated with PNGase F; 3-azido propylamine at Gln295 by microbial transglutaminase, clicked with unchelated DFO-DBCO; CAR 2
notes: Human IgG4; also called anti-PSMA mAb (MTG) mAb-DFO

Key:
[1] = target: T1, human prostate-specific membrane antigen (PSMA) (human, UniProt Q04609 1-750); assay: flow cytometry on C4-2B cells (PSMA+), AlexaFluor647 anti-human IgG secondary, MFI curve fit; parental in the MTG series
T1 construct: whole, on cells; also called PSMA+ C4-2B cells
T1 sequence (Q04609 whole entry): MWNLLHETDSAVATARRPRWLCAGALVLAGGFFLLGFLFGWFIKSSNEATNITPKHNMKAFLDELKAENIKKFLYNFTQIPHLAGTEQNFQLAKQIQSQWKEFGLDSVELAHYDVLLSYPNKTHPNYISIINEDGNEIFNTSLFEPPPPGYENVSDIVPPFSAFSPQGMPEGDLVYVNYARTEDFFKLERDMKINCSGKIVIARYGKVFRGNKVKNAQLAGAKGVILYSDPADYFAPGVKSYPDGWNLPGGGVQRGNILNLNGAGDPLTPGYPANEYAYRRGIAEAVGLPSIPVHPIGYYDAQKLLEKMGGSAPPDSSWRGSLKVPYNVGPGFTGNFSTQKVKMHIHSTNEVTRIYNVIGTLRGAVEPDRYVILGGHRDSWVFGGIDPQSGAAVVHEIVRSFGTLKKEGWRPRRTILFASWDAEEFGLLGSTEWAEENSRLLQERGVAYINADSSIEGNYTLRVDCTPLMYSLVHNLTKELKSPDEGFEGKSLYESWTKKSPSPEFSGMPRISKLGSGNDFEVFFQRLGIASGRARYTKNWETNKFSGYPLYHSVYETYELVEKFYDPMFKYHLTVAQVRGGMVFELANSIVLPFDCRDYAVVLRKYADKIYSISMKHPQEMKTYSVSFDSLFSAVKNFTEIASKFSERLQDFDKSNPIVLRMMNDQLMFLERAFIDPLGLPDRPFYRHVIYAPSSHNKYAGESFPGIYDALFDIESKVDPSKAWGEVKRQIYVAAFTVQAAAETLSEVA
Description: (§1) Cell binding of azide-modified antibodies, DOTA-DBCO-azide modified antibodies, and DFO-DBCO-azide modified antibodies was compared to the parental mAbs for the conjugates described in Table 1. Cell lines expressing the mAb target were treated with antibody or conjugate in a range of a concentrations, and binding was measured by flow cytometry. […] Anti-PSMA mAb was evaluated for binding to PSMA+C4-2b cells.
(§2) Flow Cytometry: Cells were detached from flask using enzyme free cell dissociation buffer (Gibco, Waltham, MA) and strained through a 40 μm filter (Falcon). 5×10⁴ cells were seeded per well in a 96-well u-bottom plate. Cells were incubated with conjugated antibody or parental antibody diluted in BSA stain buffer (BD Bioscience, San Jose, CA) for 1 hr at 4° C. Cells were washed twice with stain buffer. […] Cells were washed twice with stain buffer then resuspended in a final volume of 25 μL/well in stain buffer and read on the iQue® Screener flow cytometer (Intellicyt®). […] Live cells were determined by excluding events with high nucleic acid stain. Mean fluorescence intensity (MFI) was determined on live cells and graphed in GraphPad® Prism 7 (GraphPad® Software) as log of antibody concentration vs. MFI. A non-linear regression curve fit was added to data and EC₅₀ values were calculated.

[2] = target: T1, human prostate-specific membrane …; assay: flow cytometry on C4-2B cells (PSMA+), AlexaFluor647 anti-human IgG secondary, MFI curve fit; parental in the glycan series
Description: as §1, §2

[3] = target: T1, human prostate-specific membrane …; assay: flow cytometry on C4-2B cells (PSMA+), AlexaFluor647 anti-human IgG secondary, MFI curve fit; parental in the random azide series
Description: as §1, §2

[4] = target: T1, human prostate-specific membrane …; assay: flow cytometry on C4-2B cells (PSMA+), AlexaFluor647 anti-human IgG secondary, MFI curve fit
Description: as §1
Flow Cytometry: Cells were detached from flask using enzyme free cell dissociation buffer (Gibco, Waltham, MA) and strained through a 40 μm filter (Falcon). 5×10⁴ cells were seeded per well in a 96-well u-bottom plate. Cells were incubated with conjugated antibody or parental antibody diluted in BSA stain buffer (BD Bioscience, San Jose, CA) for 1 hr at 4° C. Cells were washed twice with stain buffer. Cells were then incubated in the dark for 30 min at 4° C. with AlexaFluor647 tagged anti-human IgG secondary antibody (Jackson ImmunoResearch Laboratories). Secondary antibodies were diluted 1:200 in stain buffer containing 3% donkey serum (Rockland Immunochemicals). For the last 10 minutes of the incubation SYTOX® Green Nucleic Acid Stain (ThermoFisher) was added to cells at a final concentration of 30 nM. Cells were washed twice with stain buffer then resuspended in a final volume of 25 μL/well in stain buffer and read on the iQue® Screener flow cytometer (Intellicyt®). ForeCyt® software was used to analyze data. Live cells were determined by excluding events with high nucleic acid stain. Mean fluorescence intensity (MFI) was determined on live cells and graphed in GraphPad® Prism 7 (GraphPad® Software) as log of antibody concentration vs. MFI. A non-linear regression curve fit was added to data and EC₅₀ values were calculated.

EC50 [4]	further results	Binder
	EC50 [1]: 4.1 nM; EC50 [2]: 0.7 nM; EC50 [3]: 5.5 nM	B1
4.7 nM		B2
5.4 nM		B3
4.6 nM		B4
0.5 nM		B5
0.7 nM		B6
3.4 nM		B7
5 nM		B8
6.7 nM		B9
4.5 nM		B10
